Molecular target: T1, GST alone (UniProt P08515 1-218 = GST)
T1 construct: Control protein in the pull-downs; also called purified GST; glutathione-S-transferase
Experiment: pull-down of purified His6-tagged fragment with GST fusions, Western blot with anti-Xpress antibody
Description: A His₆-tagged recombinant protein comprising a C-terminal region of SYNCRIP (amino acids 401-561) was expressed in E. coli using pREST plasmid (Invitrogen). The recombinant protein was recovered from inclusion bodies by using a denaturing solution (6 M guanidine-HCl, 10 mM Tris-HCl (pH 8.0), 0.5 M NaCl, 1 mM β-mercapto-ethanol) and purified with ProBond resin. The denatured recombinant protein was refolded by dialysis against 10 mM Tris-HCl (pH 8.0), 10 mM β-mercaptoethanol, 0.1 M NaCl and 1 mM EDTA, with gradual decrease of urea concentration from 6 M to 0.001 M. The dialysate was centrifuged at 12,000 rpm at 4° C. for 20 min to remove the malfolded part and insoluble matter. After aliquots were incubated with various GST-fusion proteins with one of the Syt-II C2 domains, bound proteins were recovered and subjected to Western blotting using anti-Xpress antibody (Invitrogen).

T1 sequence (P08515 whole entry): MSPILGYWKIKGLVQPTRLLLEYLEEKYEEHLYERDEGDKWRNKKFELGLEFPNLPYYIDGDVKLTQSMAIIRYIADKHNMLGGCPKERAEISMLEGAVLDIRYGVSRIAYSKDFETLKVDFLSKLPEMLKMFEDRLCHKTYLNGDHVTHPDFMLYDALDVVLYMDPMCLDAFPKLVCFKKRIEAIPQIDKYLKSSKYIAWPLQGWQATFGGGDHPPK

- binding result: no binding
B1: His6-tagged recombinant protein comprising a C-terminal region of SYNCRIP (amino acids 401-561) (other, not shown: small tags and cut ends)
chain: IEIVFAKPPDQKRKERKAQRQAAKNQMYDDYYYYGPPHMPPPTRGRGRGGRGGYGYPPDYYGYEDYYDYYGYDYHNYRGGYEDPYYGYEDFQVGARGRGGRGARGAAPSRGRGAAPPRGRAGYSQRGGPGSARGVRGARGGAQQQRGRGGKGVEAGPDLLQ
notes: also called C-terminal region of SYBCRIP

Reference: patent US20020106724A1 (RIKEN, published 2002)
